Earlier results as cited in publication PMC7596073.
Values joined by “and” are separate entries in the source; they are usually repeats but may differ in a detail not shown here. Identical values can stand only once.

Molecular target: IL-18BP (Homo sapiens) (UniProt O95998)
Sequence (O95998 31-194): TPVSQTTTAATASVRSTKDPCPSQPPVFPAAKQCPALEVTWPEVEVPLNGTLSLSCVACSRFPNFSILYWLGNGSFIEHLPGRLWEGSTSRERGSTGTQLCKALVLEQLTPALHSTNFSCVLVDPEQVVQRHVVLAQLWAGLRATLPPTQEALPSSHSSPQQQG

IL-18, sequence (Q14116 37-193): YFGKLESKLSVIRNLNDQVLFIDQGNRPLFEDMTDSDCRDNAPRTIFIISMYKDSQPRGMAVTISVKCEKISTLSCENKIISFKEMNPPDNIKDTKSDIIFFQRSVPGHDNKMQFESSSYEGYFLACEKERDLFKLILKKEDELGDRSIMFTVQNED

## IL-18 (from UniProt Q14116)
  Kd: 40 pM and 400 pM
